The source of these data is US20240060050A1, “CANINE HEPATIC ORGANOIDS” (Iowa State University Research Foundation, Inc., priority 2021, published 2024).

This data set deals with ABCB1 (MDR1) gene, exon 4. The experiment in a line: CRISPR/Cas9 HDR template insertion (ABCB1-1Δ knock-in) in liver organoids, amplicon sequencing. It counts as cell-based, canine. The text has this:
The HDR template was a Megamer single-stranded DNA (ssDNA) fragment ordered from IDT. It was designed with 35 bp homology arms with a total length of the ssDNA being 337 bp. The HDR template used the exact sequence as the canine organoids were derived from, with the only difference being the 4 bp deletion [ATAG] near the middle of the strand. Both the positive and negative strand were reconstituted separately to determine which incorporation was most efficient.
Approximately 500,000 cells were pooled for each electroporation cuvette. Media was removed from the wells, and organoids were resuspended in 500 μL Advanced DMEM/F12 (Gibco; Ref 12634-010). Organoids were centrifuged at 700 g at 4° C. for 5 min to form a pellet. Media was removed down to 500 μL, and the pellet was resuspended with 500 μL of TrypLETM Express (Gibco, Ref 12604-021) and pipette mixed approximately 15 times to assist in dissociation. Organoids were immediately placed in the hot water bath for 10 minutes at 37° C. and halfway through they were briefly (1 s) vortexed twice. After incubation, the sample was pipette mixed (5 times) and 10 μL of the sample was taken to determine cell concentration and check for successful dissociation. As described in Merenda et al. 2017, clusters of 10-15 cells increased survival post electroporation compared to a single cell suspension (Merenda et al., 2017). Immediately 6 mL of Advanced DMEM/F12 was added to stop the chemical dissociation. Again, organoids were centrifuged at 700 g at 4° C. for 5 min to form a pellet and the supernatant was removed.
During dissociation, the ribonucleoprotein (RNP) was prepared. 150 pmol of crRNA (IDT) and 150 pmol of tracrRNA (IDT) were mixed and heated for 5 min at 95° C. in a thermocycler. Next, the mixture was removed from the heat and allowed to cool to room temperature for ˜10 minutes. Then, 300 pmol of Cas9 Nuclease V3 (IDT) was added and incubated for 10 min at room temperature (RT).
The organoid pellet was resuspended in 90 μL of BTXpress electroporation solution (BTX; Ref 45-0801). […] The solution was added to a chilled cuvette and after the addition of the solution, the cuvette was checked for bubbles, the outside was wiped dry, and placed in a NEPA21 electroporator (Nepagene). The electroporation details can be seen in Table 6. A control GFP plasmid was electroporated separately to help determine the efficiency of electroporation. It is common to add a buffer or media solution to assist in cell recovery after electroporation. Immediately following electroporation, 400 μL of room temperature CMGF+ R/G organoid media as previously described was added to the cuvette, and the organoids were transferred to a 1.5 mL tube. The cell mixture was incubated for 30 min at RT then centrifuged at 700 g for 5 min to form a pellet. […]

Where [1] appears, read: cold shock: 30° C. for 48 hours after electroporation.
The mark [2] stands for this setting: incubation at 37° C. after electroporation.

B1: Sense Hot: 337 bp ssDNA HDR template, sense strand, with 4 bp [ATAG] deletion, electroporated with Cas9 RNP (nucleic acid)
sense: GTTTCGCTATTCAAATTGGCTTGATAGGTTGTATATGTTGGTGGGGACAATGGCTGCCATCATCCATGGAGCTGCACTCCCTCTCATGATGCTGGTTTTTGGAAACATGACAGCTTTGCAAATGCAGGAATTTCAAGAAACAAAACTTTTCCAGTTATAATTAATGAAAGTAAGTATTATTTGTGGCACTGATCTTAGAGGTTTGAAGAAAAATCTGTTACTTAGAAGGATGTTTAGCCCTCATTAAATACATTAGTGTGTTTATTTCTGGGGGAAAAGGGAGGAGTCTGAGCTACAGTTAATATTGGTAATAAGTTTGAGAAGATAATAATCATAA
Take B1: the “estimated efficiency of correct HDR template insertion” value reads like this: under setting [1], ~0.0705%; under setting [2], ~0.0348%.

B2: Anti Hot: 337 bp ssDNA HDR template, antisense strand, with 4 bp [ATAG] deletion, electroporated with Cas9 RNP (nucleic acid)
antisense: CAAAGCGATAAGTTTAACCGAACTATCCAACATATACAACCACCCCTGTTACCGACGGTAGTAGGTACCTCGACGTGAGGGAGAGTACTACGACCAAAAACCTTTGTACTGTCGAAACGTTTACGTCCTTAAAGTTCTTTGTTTTGAAAAGGTCAATATTAATTACTTTCATTCATAATAAACACCGTGACTAGAATCTCCAAACTTCTTTTTAGACAATGAATCTTCCTACAAATCGGGAGTAATTTATGTAATCACACAAATAAAGACCCCCTTTTCCCTCCTCAGACTCGATGTCAATTATAACCATTATTCAAACTCTTCTATTATTAGTATT
For B2, the “estimated efficiency of correct HDR template insertion” value runs as follows: under setting [1], 0%; under setting [2], ~0.00303%.
